According to patent publication US20250341517A1 (published 2025):
Ends that are not written are not given here. FAM = carboxyfluorescein (FAM) fluorescent label

T1: C-reactive protein (UniProt P02741 19-224)
T1 construct: also called CRP
T1 sequence (looked up): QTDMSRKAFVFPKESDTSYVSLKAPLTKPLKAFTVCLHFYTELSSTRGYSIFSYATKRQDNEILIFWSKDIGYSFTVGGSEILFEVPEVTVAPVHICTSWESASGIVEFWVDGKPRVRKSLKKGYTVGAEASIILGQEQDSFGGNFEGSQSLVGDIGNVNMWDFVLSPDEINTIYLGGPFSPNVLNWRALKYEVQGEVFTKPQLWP

B1: H2 peptide (peptide)
peptide: VYYCAREPTGTGIYFDVWGK
modifications: not fully specified (N-terminus)
notes: Synthetic 20-mer homologous to the FR3 or FR4 region of the heavy chain; The label differs between experiments; also called H2 switching peptide; fourth peptide compound H2
B2: L1 peptide (peptide)
peptide: TYLEWYPQKPGQSPKLLIYK
modifications: not fully specified (N-terminus)
notes: Synthetic 20-mer homologous to the FR2 region of the light chain; The label differs between experiments; also called L1 switching peptide; first peptide compound L1
B3: H1 peptide (peptide)
peptide: SYWIHWVKQRPGQGLEWIGE
modifications: not fully specified (N-terminus)
notes: Synthetic 20-mer homologous to the FR2 region of the heavy chain; The fluorescent label differs between experiments; also called H1 switching peptide; third peptide compound H1
B4: L2 peptide (peptide)
peptide: {FAM}-VYYCFQGSHVPFTK
notes: Synthetic 14-mer homologous to the FR3 or FR4 region of the light chain; also called L2 switching peptide; second peptide compound L2

Assays:
Anti-hCG antibody(m) = molecular target: T2, Anti-hCG antibody(m); experiment: labelled peptide on antibody immobilised on microplate; antigen hCG
T2 construct: also called mouse IgG (hCG)

Anti-CRP antibody(r) = molecular target: T3, Anti-CRP antibody(r); experiment: labelled peptide on antibody immobilised on microplate; antigen CRP
T3 construct: also called rabbit IgG (CRP)

Anti-HRP antibody(r) [1] = molecular target: T4, Anti-HRP antibody(r); experiment: labelled peptide on antibody immobilised on microplate; antigen HRP
T4 construct: Rabbit IgG, immobilised on a microplate; also called rabbit anti-HRP antibodies; anti-HRP antibody from a rabbit

[2] = molecular target: T5, anti-Inf-A binding antibody; experiment: dissociation of labelled peptide from anti-Inf-A antibody on treatment with Inf-A; fluorescence
T5 construct: also called anti-Inf-A antibody; anti-inf A antibody

Anti-HBsAg antibody(g) = molecular target: T6, Anti-HBsAg antibody(g); experiment: labelled peptide on antibody immobilised on microplate; antigen HBsAg
T6 construct: also called anti-HBsAg antibodies from goats; goat IgG (HBsAg)

BSA = molecular target: T7, BSA (UniProt P02769 25-607); experiment: labelled peptide on protein immobilised on microplate; fluorescence at bottom
T7 construct: also called bovine serum albumin

protein-A = protein-A (UniProt P38507 37-477); experiment: as above
C-reactive protein = molecular target: T1, C-reactive protein; experiment: as above
[3] = molecular target: T5, anti-Inf-A binding antibody; experiment: SPR biosensor, anti-Inf-A antibody immobilised on Au substrate, BSA blocked
From the text: Referring to FIG. 17A, anti-Inf-A and anti-Inf-B binding antibodies were immobilized on an Au substrate using an SPR biosensor, and the blank surface of the substrate was blocked with a BSA solution to treat Inf-A and Inf-B.

Anti-HRP antibody(r) [4] = molecular target: T4, Anti-HRP antibody(r); experiment: fluorescence in solution against HRP concentration (0.3 to 100 µM); peptide on immobilised rabbit anti-HRP antibody
From the text: In this experiment, an anti-HRP antibody from a rabbit immobilized on a microplate was used as the binding antibody and HRP was used as the antigen.

[5] = molecular target: T8, anti-Inf-B binding antibody; experiment: dissociation of labelled peptide from anti-Inf-B antibody on treatment with Inf-B; fluorescence
T8 construct: also called anti-Inf-B antibody

[6] = molecular target: T8, anti-Inf-B binding antibody; experiment: SPR biosensor, anti-Inf-B antibody immobilised on Au substrate, BSA blocked
Anti-HRP antibody(r) [7] = molecular target: T4, Anti-HRP antibody(r); experiment: labelled peptide on immobilised rabbit anti-HRP antibody, papain cleavage
H2 peptide = molecular target: B1; experiment: FRET on microplate: FAM-L1 immobilised, TAMRA-H2 incubated
L2 peptide = molecular target: B4; experiment: FRET on microplate: FAM-L2 immobilised, TAMRA-H1 incubated

T7 sequence (P02769 25-607 limits assumed): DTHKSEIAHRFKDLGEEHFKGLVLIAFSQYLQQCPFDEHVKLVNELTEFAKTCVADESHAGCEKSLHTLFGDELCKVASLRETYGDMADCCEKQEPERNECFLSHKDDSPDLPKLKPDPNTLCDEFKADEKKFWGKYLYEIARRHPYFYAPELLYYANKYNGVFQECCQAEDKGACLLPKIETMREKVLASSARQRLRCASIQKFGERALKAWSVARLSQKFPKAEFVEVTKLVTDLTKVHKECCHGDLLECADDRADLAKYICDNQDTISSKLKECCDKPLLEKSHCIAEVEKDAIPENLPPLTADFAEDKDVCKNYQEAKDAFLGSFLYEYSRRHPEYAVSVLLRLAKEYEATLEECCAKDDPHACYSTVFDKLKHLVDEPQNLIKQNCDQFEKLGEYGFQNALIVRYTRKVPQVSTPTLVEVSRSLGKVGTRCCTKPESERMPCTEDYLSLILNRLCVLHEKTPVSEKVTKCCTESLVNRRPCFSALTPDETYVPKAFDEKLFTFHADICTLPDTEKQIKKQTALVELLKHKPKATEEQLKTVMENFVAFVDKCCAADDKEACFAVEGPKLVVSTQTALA

Row | Binder | change (%) of fluorescence at bottom (B) of microplate (Anti-hCG antibody(m)) [%] | change (%) of fluorescence in solution (S) (Anti-hCG antibody(m)) [%] | fluorescence intensity at bottom (B) of microplate after antigen binding (Anti-hCG antibody(m)) | fluorescence intensity at bottom (B) of microplate before antigen binding (Anti-hCG antibody(m)) | fluorescence intensity in solution (S) after antigen binding (Anti-hCG antibody(m)) | fluorescence intensity in solution (S) before antigen binding (Anti-hCG antibody(m)) | change (%) of fluorescence at bottom (B) of microplate (Anti-CRP antibody(r)) [%] | change (%) of fluorescence in solution (S) (Anti-CRP antibody(r)) [%] | fluorescence intensity at bottom (B) of microplate after antigen binding (Anti-CRP antibody(r)) | fluorescence intensity at bottom (B) of microplate before antigen binding (Anti-CRP antibody(r)) | fluorescence intensity in solution (S) after antigen binding (Anti-CRP antibody(r)) | fluorescence intensity in solution (S) before antigen binding (Anti-CRP antibody(r)) | change (%) of fluorescence at bottom (B) of microplate (Anti-HRP antibody(r) [1]) [%] | change (%) of fluorescence in solution (S) (Anti-HRP antibody(r) [1]) [%] | fluorescence intensity at bottom (B) of microplate after antigen binding (Anti-HRP antibody(r) [1]) | fluorescence intensity at bottom (B) of microplate before antigen binding (Anti-HRP antibody(r) [1]) | fluorescence intensity in solution (S) after antigen binding (Anti-HRP antibody(r) [1]) | fluorescence intensity in solution (S) before antigen binding (Anti-HRP antibody(r) [1]) | relative change in fluorescence signal [2] [%] | change (%) of fluorescence at bottom (B) of microplate (Anti-HBsAg antibody(g)) [%] | further results
1 | B1 | -88.5 | 416 | 23300 | 23300 | 8540 | 1650 | -39.5 | 677 | 22200 | 22200 | 16300 | 2100 | -85.2 | 698 | 1810 | 122000 | 18100 | 2270 | 352 | -36.1 | change (%) of fluorescence in solution (S) (Anti-HBsAg antibody(g)): 412%; fluorescence intensity at bottom (B) of microplate after antigen binding (Anti-HBsAg antibody(g)): 18800; fluorescence intensity at bottom (B) of microplate before antigen binding (Anti-HBsAg antibody(g)): 29400; fluorescence intensity in solution (S) after antigen binding (Anti-HBsAg antibody(g)): 9140; fluorescence intensity in solution (S) before antigen binding (Anti-HBsAg antibody(g)): 1780; binding result (BSA): no binding; binding result (protein-A): no binding; binding result (C-reactive protein): no binding; Kd [3]: 37 µM; Kd (Anti-HRP antibody(r) [4]): 3.11 µM; relative change in fluorescence signal [5]: 199%; Kd [6]: 56 µM; decrease of fluorescence intensity at the bottom of the microplate after papain treatment (Anti-HRP antibody(r) [7]): 58.7%; increase of fluorescence intensity in the solution after papain treatment (Anti-HRP antibody(r) [7]): 2360%
2 | B2 | -61.6 | 187 | 1780 | 4630 | 3580 | 1250 | -48.6 | 778 | 3460 | 6720 | 6500 | 741 | -87.3 | 357 | 1990 | 15600 | 12300 | 2690 | 176 | -51.3 | binding result (H2 peptide): binds; change (%) of fluorescence in solution (S) (Anti-HBsAg antibody(g)): 638%; fluorescence intensity at bottom (B) of microplate after antigen binding (Anti-HBsAg antibody(g)): 5390; fluorescence intensity at bottom (B) of microplate before antigen binding (Anti-HBsAg antibody(g)): 11100; fluorescence intensity in solution (S) after antigen binding (Anti-HBsAg antibody(g)): 20500; fluorescence intensity in solution (S) before antigen binding (Anti-HBsAg antibody(g)): 2780; binding result (BSA): no binding; binding result (protein-A): no binding; binding result (C-reactive protein): no binding; Kd [3]: 14 µM; Kd (Anti-HRP antibody(r) [4]): 3.29 µM; relative change in fluorescence signal [5]: 180%; Kd [6]: 14 µM; decrease of fluorescence intensity at the bottom of the microplate after papain treatment (Anti-HRP antibody(r) [7]): 84.8%; increase of fluorescence intensity in the solution after papain treatment (Anti-HRP antibody(r) [7]): 1030%
3 | B3 | -65.6 | 206 | 1940 | 5650 | 3920 | 1280 | -26.8 | 152 | 3600 | 4910 | 5660 | 2240 | -87.7 | 746 | 1450 | 11800 | 22000 | 2600 | 130 | -58.9 | binding result (L2 peptide): binds; change (%) of fluorescence in solution (S) (Anti-HBsAg antibody(g)): 410%; fluorescence intensity at bottom (B) of microplate after antigen binding (Anti-HBsAg antibody(g)): 4620; fluorescence intensity at bottom (B) of microplate before antigen binding (Anti-HBsAg antibody(g)): 11200; fluorescence intensity in solution (S) after antigen binding (Anti-HBsAg antibody(g)): 11500; fluorescence intensity in solution (S) before antigen binding (Anti-HBsAg antibody(g)): 2240; binding result (BSA): no binding; binding result (protein-A): no binding; binding result (C-reactive protein): no binding; Kd (Anti-HRP antibody(r) [4]): 1.65 µM; relative change in fluorescence signal [5]: 145%; decrease of fluorescence intensity at the bottom of the microplate after papain treatment (Anti-HRP antibody(r) [7]): 84.3%; increase of fluorescence intensity in the solution after papain treatment (Anti-HRP antibody(r) [7]): 2180%
4 | B4 | -90.7 | 456 | 3070 | 33200 | 9400 | 1690 | -44.9 | 883 | 11200 | 20400 | 32200 | 3270 | -74.5 | 597 | 3210 | 12600 | 16100 | 2320 | 225 | -64.8 | change (%) of fluorescence in solution (S) (Anti-HBsAg antibody(g)): 574%; fluorescence intensity at bottom (B) of microplate after antigen binding (Anti-HBsAg antibody(g)): 9860; fluorescence intensity at bottom (B) of microplate before antigen binding (Anti-HBsAg antibody(g)): 28000; fluorescence intensity in solution (S) after antigen binding (Anti-HBsAg antibody(g)): 15400; fluorescence intensity in solution (S) before antigen binding (Anti-HBsAg antibody(g)): 2280; binding result (BSA): no binding; binding result (protein-A): no binding; binding result (C-reactive protein): no binding; Kd (Anti-HRP antibody(r) [4]): 1.48 µM; relative change in fluorescence signal [5]: 151%; decrease of fluorescence intensity at the bottom of the microplate after papain treatment (Anti-HRP antibody(r) [7]): 72.5%; increase of fluorescence intensity in the solution after papain treatment (Anti-HRP antibody(r) [7]): 2450%
